Laboratory results taken from article PMC9283540.

Tests used:
[1] = molecular target: TipsytheTRex repressor D104A (Mycobacteriophage TipsytheTRex (cluster A)) (UniProt A0A2D1GKF7); assay: EMSA; conditions: 0.25 uM labeled DNA; ~3.5-fold weaker than WT; EMSA: 20 mM Tris pH 7.0, 25 mM NaCl, 1 mM DTT, 100 ug/mL BSA, 5% glycerol, 0.25 uM FAM-DNA, room temperature 30 min, 5% native gel in 1x TAE
[2] = molecular target: TipsytheTRex immunity repressor (WT of study stock) (Mycobacteriophage TipsytheTRex (cluster A)) (UniProt A0A2D1GKF7); assay: EMSA; conditions: 0.25 uM labeled DNA; EMSA: 20 mM Tris pH 7.0, 25 mM NaCl, 1 mM DTT, 100 ug/mL BSA, 5% glycerol, 0.25 uM FAM-DNA, room temperature 30 min, 5% native gel in 1x TAE

“ACGGCCCGCTTGACAGCCACCGAAACATCC (double strand) [30-bp optimal]” was tested, and the Kd [1] was 0.207 µM and the Kd [2] was 0.059 µM.
